# Laboratory results from US10781452B2, “FLT3 receptor antagonists for the treatment or the prevention of pain disorders” (INSTITUT NATIONAL DE LA SANTE ET DE LA RECHERCHE MEDICALE …, priority 2010, dated 2020).
# T1: ECD of mouse recombinant FLT3 (Fc-ECDmFLT3) (Mus musculus, UniProt Q00342)
# T1 construct: ECD of human or mouse recombinant FLT3 produced in NSO cell line; host or cells: NSO cell line
# T1 sequence (Q00342 28-544 limits assumed): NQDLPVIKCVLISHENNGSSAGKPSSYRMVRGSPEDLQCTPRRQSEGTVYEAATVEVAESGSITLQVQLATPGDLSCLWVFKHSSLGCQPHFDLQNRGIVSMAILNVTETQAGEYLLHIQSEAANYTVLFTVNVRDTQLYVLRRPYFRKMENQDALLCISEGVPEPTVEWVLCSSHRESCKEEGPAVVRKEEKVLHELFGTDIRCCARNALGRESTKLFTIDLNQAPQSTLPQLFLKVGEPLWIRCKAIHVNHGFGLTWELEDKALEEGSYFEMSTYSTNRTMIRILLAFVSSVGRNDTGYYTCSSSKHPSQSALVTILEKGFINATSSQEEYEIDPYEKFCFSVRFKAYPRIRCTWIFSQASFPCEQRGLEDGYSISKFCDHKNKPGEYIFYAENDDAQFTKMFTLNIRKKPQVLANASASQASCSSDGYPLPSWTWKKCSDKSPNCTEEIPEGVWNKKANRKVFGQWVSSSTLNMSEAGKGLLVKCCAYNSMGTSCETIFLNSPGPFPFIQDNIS
# T2: FLT3 (Homo sapiens, UniProt P36888)
# T2 construct: expressed in transfected cells; host or cells: RS4-11
# T2 sequence (P36888 27-993): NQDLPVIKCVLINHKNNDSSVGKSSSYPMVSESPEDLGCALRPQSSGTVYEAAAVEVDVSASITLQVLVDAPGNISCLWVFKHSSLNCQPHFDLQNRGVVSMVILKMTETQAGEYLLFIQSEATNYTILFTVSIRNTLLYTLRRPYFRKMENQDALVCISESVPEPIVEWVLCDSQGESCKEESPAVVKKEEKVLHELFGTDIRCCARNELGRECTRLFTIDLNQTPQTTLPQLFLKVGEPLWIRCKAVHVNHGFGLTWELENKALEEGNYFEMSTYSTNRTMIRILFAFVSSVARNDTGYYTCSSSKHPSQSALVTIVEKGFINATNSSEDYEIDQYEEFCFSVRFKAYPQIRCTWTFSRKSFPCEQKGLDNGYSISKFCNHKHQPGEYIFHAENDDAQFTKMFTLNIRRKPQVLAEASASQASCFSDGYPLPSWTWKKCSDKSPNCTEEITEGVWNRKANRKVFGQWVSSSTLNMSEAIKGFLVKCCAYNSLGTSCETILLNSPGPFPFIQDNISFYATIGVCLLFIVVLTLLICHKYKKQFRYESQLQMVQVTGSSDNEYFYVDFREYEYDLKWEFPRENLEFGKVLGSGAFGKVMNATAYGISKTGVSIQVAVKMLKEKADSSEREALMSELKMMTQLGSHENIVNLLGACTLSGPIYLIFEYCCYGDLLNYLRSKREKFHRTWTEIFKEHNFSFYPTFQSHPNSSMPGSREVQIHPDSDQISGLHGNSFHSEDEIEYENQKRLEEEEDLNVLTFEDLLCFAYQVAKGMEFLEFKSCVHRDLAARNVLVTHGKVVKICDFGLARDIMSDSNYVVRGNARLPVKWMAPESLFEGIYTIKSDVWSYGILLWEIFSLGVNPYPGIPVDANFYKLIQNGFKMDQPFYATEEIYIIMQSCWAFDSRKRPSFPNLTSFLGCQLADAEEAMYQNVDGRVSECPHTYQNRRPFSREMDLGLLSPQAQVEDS
# B1: A3 antibody: human monoclonal antibody against FLT3; VH SEQ ID NO:1, VL SEQ ID NO:2 (antibody, V domains shown)
# VH: EVQLVESGGSLVKPGGSLRLSCAASGFTFSNSYMNWVRQAPGKGLEWISDISGSSRDIDYADFVKGRFTISRDNATNSLYLQMNSLRAEDTAVYYCVRSGNSGMDVWGRGTLVTVSS
# VL: QSVLTQPASVSGSPGQSITISCAGTSSDVGGGYYVSWYQQHPGKAPKLMIYYDSYRPSGVSNRFSGSKSGNTASLTISGLQAEDEADYYCSSYTNNSTRVFGGGTKLEIK
# modifications: Synthetic VH domain of A3; Synthetic VL region of A3
# What was measured:
# [1] = target: T1, ECD of mouse recombinant FLT3 (Fc-ECDmFLT3); experiment: ELISA binding to ECD of mouse recombinant FLT3; settings: antibody at 10 μg/mL
# Procedure: The A3 antibody directed against FLT3 was produced by a phage display strategy and the antibody selection was performed by using ECD of human or mouse recombinant FLT3 produced in NSO cell line. To identify antibodies cross-reacting with both human and mouse FLT3, phages were selected by three rounds of panning, according to methods well known in the art (Philibert, P. et al. A focused antibody library for selecting scFvs expressed at high levels in the cytoplasm. BMC Biotechnol. 7, 81; 2007), first against the ECD of human FLT3, then against the ECD of mouse FLT3 and then against the ECD of human FLT3. A batch of one selected antibody named A3 was tested for its ability to bind to the ECD of human or mouse recombinant FLT3 using an ELISA technique.
# FLT3 = target: T2, FLT3; experiment: FL-induced FLT3 auto-phosphorylation assay in RS4-11 cells; assay type: cell-based; settings: antibody at 10 and 100 μg/ml
# Procedure: Cell. RS4-11 cells, used for auto-phosphorylation assays, were maintained in RPMI-1640 (Invitrogen) and 10% Fetal Calf Serum. They were transfected as in the case of HEK cells (see above)
# Auto-Phosphorylation assays. A density of 50,000 cells per well was used to carry out this assay in suspension in 384-well small volume plates to determine the degree of phosphorylation of FLT3. In the aim to discover antagonist compounds and to develop this assay, we were determined the efficiency of FL on RS4-11 cells.
# Cells were incubated with 1 nM of rh-FL in the presence of increasing concentrations of the antibody. In the plates containing RS4-11 cells (5 μL/well), 5 μL of compounds to be tested were added and incubated for 1 h at room temperature prior to the addition of 2 μof rh-FL at 0.1 μM. After incubation of 3 min at room temperature of rh-FL, 4 μl of lysis buffer were added and incubated for 2 h at room temperature. A mix of anti-FLT3 and an anti-TYR-969 FLT3 antibodies labeled with Lumi4-Tb and d2 respectively (4 μL) diluted in Tag-lites) labelling medium, were added on cell lysate. Plates were then incubated at room temperature for 2 h or overnight before signal detection (as above).
molecule,measurement,setting,value
B1,ELISA immunoreactivity against Fc-ECDmFLT3,[1],generates immunoreactivity
same,FL-induced FLT3 autophosphorylation,FLT3,inhibits FL-induced FLT3 autophosphorylation
